Laboratory results: IntAct's records for PubMed 16963558

B1: Non-structural protein 1 (Influenza A virus (strain A/Puerto Rico/8/1934 H1N1)), P03496 (parent)
chain: MDPNTVSSFQVDCFLWHVRKRVADQELGDAPFLDRLRRDQKSLRGRGSTLGLDIETATRAGKQIVERILKEESDEALKMTMASVPASRYLTDMTLEEMSRDWSMLIPKQKVAGPLCIRMDQAIMDKNIILKANFSVIFDRLETLILLRAFTEEGAIVGEISPLPSLPGHTAEDVKNAVGVLIGGLEWNDNTVRVSETLQRFAWRSSNENGRPPLTPKQKREMAGTIRSEV

Variants of: B1
Settings: with p85b_human PIK3R2, O00459
p85b_human PIK3R2, O00459, sequence (O00459 whole entry): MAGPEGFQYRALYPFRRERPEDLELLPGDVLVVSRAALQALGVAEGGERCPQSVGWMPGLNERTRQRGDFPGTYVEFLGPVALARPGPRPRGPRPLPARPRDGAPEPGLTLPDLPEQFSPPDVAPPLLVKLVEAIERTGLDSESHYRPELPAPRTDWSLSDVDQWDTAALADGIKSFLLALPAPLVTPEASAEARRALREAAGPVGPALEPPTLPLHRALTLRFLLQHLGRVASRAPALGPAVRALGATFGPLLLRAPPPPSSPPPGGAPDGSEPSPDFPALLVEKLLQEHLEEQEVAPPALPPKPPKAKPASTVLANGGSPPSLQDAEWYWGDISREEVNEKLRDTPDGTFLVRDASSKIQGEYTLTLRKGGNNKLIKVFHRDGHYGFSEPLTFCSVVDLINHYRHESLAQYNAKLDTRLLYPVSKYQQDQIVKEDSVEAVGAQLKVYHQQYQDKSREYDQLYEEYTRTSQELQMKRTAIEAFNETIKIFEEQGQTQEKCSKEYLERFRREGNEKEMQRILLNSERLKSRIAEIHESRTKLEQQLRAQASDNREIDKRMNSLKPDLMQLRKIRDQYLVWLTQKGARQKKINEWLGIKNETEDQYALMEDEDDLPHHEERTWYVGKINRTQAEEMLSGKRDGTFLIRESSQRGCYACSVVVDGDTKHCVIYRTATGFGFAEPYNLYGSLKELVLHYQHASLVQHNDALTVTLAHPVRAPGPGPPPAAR

Q: How did the “effect of a mutation on the interaction” value turn out when Y89F was run?
A: disrupting interaction strength

Q: M93A was tested. Which “effect of a mutation on the interaction” value did it give?
A: disrupting interaction strength

Variants of: B1
Settings: with p85b_bovin PIK3R2, P23726
p85b_bovin PIK3R2, P23726, sequence (P23726 whole entry): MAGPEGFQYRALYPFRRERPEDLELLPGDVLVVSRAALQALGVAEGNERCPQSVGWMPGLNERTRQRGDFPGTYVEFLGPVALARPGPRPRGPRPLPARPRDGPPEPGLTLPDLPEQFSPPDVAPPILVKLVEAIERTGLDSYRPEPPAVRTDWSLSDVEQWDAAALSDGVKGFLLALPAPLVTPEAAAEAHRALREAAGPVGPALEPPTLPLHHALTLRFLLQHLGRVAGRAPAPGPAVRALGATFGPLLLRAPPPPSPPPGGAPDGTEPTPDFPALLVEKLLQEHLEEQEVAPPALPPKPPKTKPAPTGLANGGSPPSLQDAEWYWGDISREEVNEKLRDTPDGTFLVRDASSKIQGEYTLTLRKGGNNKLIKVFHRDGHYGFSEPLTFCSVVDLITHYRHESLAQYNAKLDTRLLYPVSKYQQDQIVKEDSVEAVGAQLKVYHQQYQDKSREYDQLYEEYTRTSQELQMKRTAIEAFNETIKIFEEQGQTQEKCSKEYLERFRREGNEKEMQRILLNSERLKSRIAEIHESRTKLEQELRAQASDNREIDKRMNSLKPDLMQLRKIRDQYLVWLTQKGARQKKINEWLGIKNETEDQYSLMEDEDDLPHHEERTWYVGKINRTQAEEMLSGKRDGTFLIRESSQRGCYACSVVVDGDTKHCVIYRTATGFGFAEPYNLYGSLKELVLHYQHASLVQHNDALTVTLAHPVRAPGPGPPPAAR

Q: Y89F was tested. Which “effect of a mutation on the interaction” value did it give?
A: disrupting interaction strength
